Measurements as given in patent US20180244762A1.

Columns and labels:
[1] = target: recombinant human PDGF-BB (human) (UniProt P01127); assay: competitive ELISA: binder preincubated with 0.2 nM rhPDGF-BB, competitor immobilized PDGFR/Fc
[2] = target: recombinant human PDGF-BB (human) (UniProt P01127); assay: cell-based or functional assay
[3] = target: recombinant human PDGF-BB (human) (UniProt P01127); assay: optical biosensor (Proteon XPR36 / Biacore 2000), binder amine-coupled, rhPDGF-BB injected, 25 C

Sequence of recombinant human PDGF-BB (human) (P01127 82-190): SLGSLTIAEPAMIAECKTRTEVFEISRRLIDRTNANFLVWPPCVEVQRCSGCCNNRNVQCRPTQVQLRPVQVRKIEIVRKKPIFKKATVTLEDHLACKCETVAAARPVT

## reference anti-PDGF-BB antibody (R&D Systems, Catalog # AB-220-NA)
[1]
  IC50: 0.066 nM
[2]
  Inhibition of PDGF induced proliferation of HPVPs, IC50: 5.4 nM
[3]
  Kd: 0.107 nM
